Measurements: patent publication US20230151111A1 (AKESO BIOPHARMA, published 2023)

Tests used:
PD-1-mFc [1] = target: T1, PD-1-mFc (human, UniProt Q15116 25-170, limits assumed); experiment: BLI (Fortebio), PD1-mFc on AMC sensor, antibody 0.62-50 nM, 30 C
T1 construct: also called human PD-1-mFc
Method: The sample dilution buffer was PBS (0.02% Tween-20, 0.1% BSA, pH 7.4). […] The data were analyzed by 1:1 model fitting to obtain affinity constants.

human PD-1-mFc-biotin = human PD-1-mFc-biotin (human, UniProt Q15116 25-170, limits assumed, biotin label, site not stated); experiment: competitive ELISA, blocking of PD-1-mFc-biotin binding to coated PD-L1-mFc
Chain of human PD-1-mFc-biotin (Q15116 other isoform, or with tags, fused parts or gaps limits assumed): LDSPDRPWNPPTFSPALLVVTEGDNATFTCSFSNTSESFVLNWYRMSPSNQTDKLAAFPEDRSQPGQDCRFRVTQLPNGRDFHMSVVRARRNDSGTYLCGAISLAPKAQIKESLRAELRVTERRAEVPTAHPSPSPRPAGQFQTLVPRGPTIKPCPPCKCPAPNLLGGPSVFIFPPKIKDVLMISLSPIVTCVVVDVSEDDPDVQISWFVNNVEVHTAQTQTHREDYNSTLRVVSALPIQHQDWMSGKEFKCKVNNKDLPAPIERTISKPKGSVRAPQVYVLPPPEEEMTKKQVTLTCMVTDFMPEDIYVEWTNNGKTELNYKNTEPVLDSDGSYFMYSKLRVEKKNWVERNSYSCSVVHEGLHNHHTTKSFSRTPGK
Method: After incubation, the microplate was blocked with a PBS solution containing 1% BSA at 37° C. for 2 h. […] The antibody was serially diluted to 7 concentrations in a gradient ratio of 1:3 on a dilution plate with 10 μg/mL as the starting concentration, and a blank control was set. […] Then the mixture after reaction was added to the coated microplate, and the microplate was incubated for at 37° C. for 30 min. After incubation, the plate was washed three times with PBST and dried. SA-HRP (KPL, 14-30-00) working solution was added, and the plate was incubated at 37° C. for 30 min. After incubation, the plate was washed four times and patted dry. Then TMB (Neogen, 308177) was added in the dark for chromogenesis for 5 min, and a stop solution was added to terminate chromogenic reaction. Then the microplate was put into a microplate reader immediately, and the OD value of each well in the microplate was read at 450 nm. The data were analyzed and processed by SoftMax Pro 6.2.1.

PD-1-mFc [2] = target: T1, PD-1-mFc; experiment: ELISA, PD-1-mFc coated
Method: Then the microplate coated with antigens was washed once with PBST, and then blocked with a PBS solution containing 1% BSA as blocking solution at 37° C. for 2 h. After blocking, the microplate was washed 3 times with PBST. The microplate containing the test antibodies was incubated at 37° C. for 30 min, and then washed 3 times with PBST. […] The microplate was put into a microplate reader immediately, and the OD value of each well in the microplate was read at 450 nm. The data were analyzed and processed by SoftMax Pro 6.2.1.

T1 sequence (Q15116 other isoform, or with tags, fused parts or gaps limits assumed): as above

Kd (PD-1-mFc [1]): 44.5 pM | EC50 (human PD-1-mFc-biotin): 2230 pM | EC50 (PD-1-mFc [2]): 31 pM
B1: 14C12H1L1(hG1TM) (antibody, human IgG1, kappa)
heavy: not shown
light: DIQMTQSPSSMSASVGDRVTFTCRASQDINTYLSWFQQKPGKSPKTLIYRANRLVSGVPSRFSGSGSGQDYTLTISSLQPEDMATYYCLQYDEFPLTFGAGTKLELKRTVAAPSVFIFPPSDEQLKSGTASVVCLLNNFYPREAKVQWKVDNALQSGNSQESVTEQDSKDSTYSLSSTLTLSKADYEKHKVYACEVTHQGLSSPVTKSFNRGEC
notes: Humanized anti-PD-1 IgG1 with L234A/L235A/G237A
